Assay results as given in patent US20240270828A1 (UAB RESEARCH FOUNDATION, published 2024).

How the values were obtained:
[1] = target: SARS-CoV-2 Wuhan-Hu-1 Spike protein (NR-53524 BEI Resources) (SARS-CoV-2, UniProt P0DTC2 16-1213); assay: cell-based or functional assay
[2] = target: T1, MERS-CoV S2 (Sino Biological, 40070-V08) (MERS-CoV, UniProt K9N5Q8 726-1296); assay: ELISA, mAb at 5, 0.5 and 0.05 ug/ml, without and with 8M urea; AUC heat map
T1 sequence: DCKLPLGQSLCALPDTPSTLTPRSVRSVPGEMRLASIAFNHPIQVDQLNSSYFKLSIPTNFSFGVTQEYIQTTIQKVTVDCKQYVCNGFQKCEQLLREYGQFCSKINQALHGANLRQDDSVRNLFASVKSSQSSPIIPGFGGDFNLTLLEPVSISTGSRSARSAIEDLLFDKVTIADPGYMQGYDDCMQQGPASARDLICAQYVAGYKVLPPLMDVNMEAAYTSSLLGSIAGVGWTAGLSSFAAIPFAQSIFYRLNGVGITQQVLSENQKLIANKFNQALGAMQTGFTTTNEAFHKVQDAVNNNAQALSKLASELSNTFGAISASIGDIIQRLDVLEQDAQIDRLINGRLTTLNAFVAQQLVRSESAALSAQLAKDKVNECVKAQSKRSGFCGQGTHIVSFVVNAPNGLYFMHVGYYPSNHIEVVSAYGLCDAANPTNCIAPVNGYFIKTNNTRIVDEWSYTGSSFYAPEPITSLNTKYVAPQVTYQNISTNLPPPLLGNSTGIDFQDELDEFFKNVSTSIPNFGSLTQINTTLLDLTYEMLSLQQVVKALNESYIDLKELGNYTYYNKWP

[3] = target: T2, OC43 S2 (40607-V08B1, Sino Biological) (HCoV-OC43, UniProt P36334 759-1297); assay: as above
T2 construct: domain: S2
T2 sequence: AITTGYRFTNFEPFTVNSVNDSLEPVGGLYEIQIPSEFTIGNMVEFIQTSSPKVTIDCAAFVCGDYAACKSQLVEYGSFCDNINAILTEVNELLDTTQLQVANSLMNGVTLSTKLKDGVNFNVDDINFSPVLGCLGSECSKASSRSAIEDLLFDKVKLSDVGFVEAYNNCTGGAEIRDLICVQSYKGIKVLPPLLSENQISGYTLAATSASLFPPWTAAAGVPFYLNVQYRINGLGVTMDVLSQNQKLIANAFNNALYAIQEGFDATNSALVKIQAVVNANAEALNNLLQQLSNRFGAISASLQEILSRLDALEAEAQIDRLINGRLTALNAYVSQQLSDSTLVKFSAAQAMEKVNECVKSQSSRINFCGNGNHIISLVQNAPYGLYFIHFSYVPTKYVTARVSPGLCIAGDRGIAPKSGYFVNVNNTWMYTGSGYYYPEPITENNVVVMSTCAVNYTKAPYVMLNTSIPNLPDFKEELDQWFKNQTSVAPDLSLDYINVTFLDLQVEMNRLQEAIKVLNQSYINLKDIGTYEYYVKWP

[4] = target: T3, HKU1 S2 (40021-V08B, Sino Biological) (HCoV-HKU1, UniProt Q5MQD0 761-1300); assay: as above
T3 construct: domain: S2
T3 sequence: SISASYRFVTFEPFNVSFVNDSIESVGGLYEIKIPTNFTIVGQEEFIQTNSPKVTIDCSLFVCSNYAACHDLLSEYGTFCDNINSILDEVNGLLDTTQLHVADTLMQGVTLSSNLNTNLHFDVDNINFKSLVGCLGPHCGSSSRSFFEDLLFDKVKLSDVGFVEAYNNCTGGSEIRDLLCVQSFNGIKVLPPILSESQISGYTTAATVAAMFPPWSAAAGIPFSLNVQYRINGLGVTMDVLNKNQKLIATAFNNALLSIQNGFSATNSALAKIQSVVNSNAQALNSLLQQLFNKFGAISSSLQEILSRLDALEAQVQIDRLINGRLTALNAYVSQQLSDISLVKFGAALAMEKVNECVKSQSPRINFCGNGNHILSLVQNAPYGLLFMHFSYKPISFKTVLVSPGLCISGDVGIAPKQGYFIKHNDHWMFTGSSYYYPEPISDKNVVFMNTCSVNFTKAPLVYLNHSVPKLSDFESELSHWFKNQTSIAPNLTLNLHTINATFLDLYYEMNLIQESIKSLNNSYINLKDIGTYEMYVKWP

[5] = target: T1, MERS-CoV S2 (Sino Biological, 40070-V08); assay: SPR, as far as told; target printed as MERS-CoV SH
[6] = target: Spike of live SARS-CoV-2 WT virus (SARS-CoV-2, UniProt P0DTC2 14-1273); assay: cell-based or functional assay
[7] = target: T4, Spike of MERS-CoV on infected Vero E6 cells and live virus (MERS-CoV, UniProt K9N5Q8 18-1353); assay: immunofluorescence on infected Vero E6 cells, 1 µg/ml
T4 sequence: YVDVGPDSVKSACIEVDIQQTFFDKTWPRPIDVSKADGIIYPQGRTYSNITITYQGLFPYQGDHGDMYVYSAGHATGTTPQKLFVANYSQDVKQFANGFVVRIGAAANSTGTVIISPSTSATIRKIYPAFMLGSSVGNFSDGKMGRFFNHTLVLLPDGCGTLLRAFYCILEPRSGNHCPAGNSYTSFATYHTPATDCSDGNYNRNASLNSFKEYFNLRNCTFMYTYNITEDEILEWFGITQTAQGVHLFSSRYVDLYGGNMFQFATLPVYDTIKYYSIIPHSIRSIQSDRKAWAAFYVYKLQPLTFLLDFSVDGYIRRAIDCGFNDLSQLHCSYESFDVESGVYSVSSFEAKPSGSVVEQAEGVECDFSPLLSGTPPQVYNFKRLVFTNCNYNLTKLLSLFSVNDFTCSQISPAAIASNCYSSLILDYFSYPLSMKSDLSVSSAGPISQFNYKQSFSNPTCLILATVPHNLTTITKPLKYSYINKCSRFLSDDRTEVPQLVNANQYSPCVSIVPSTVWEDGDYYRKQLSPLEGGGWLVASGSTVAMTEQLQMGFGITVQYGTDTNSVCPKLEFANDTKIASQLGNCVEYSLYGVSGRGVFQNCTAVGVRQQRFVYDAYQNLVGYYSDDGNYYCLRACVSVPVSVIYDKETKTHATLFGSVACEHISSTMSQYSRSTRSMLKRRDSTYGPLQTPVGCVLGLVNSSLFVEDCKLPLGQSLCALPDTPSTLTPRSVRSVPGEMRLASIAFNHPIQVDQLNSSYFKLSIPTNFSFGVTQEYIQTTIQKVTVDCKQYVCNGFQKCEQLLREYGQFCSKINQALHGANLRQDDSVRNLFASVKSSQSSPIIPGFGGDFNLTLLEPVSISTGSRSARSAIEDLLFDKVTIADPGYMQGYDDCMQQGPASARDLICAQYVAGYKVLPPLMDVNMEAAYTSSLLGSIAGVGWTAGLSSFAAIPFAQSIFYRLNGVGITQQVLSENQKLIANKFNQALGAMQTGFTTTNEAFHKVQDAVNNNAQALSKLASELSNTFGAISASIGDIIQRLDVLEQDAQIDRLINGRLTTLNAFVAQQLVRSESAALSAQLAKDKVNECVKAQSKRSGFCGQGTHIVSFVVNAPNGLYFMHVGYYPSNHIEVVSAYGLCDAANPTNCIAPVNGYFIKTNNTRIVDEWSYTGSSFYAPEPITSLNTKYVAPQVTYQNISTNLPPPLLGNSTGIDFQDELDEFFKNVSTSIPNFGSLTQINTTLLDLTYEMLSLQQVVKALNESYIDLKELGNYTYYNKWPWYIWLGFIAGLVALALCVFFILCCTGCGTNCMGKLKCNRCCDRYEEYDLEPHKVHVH

[8] = target: Spike of SARS-CoV (Urbani) on infected Vero E6 cells and live virus (SARS-CoV, UniProt P59594 14-1255); assay: as above
[9] = target: T5, SARS-CoV-2 S1 (40591-V08H3, Sino Biological) (SARS-CoV-2, UniProt P0DTC2 16-685); assay: ELISA on coated protein, anti-human IgG-HRP; AUC of the OD
T5 construct: domain: S1

[10] = target: T6, SARS-CoV-2 S2 (40590-V08B, Sino Biological) (SARS-CoV-2, UniProt P0DTC2 686-1213); assay: as above
T6 construct: domain: S2

[11] = target: T7, SARS-CoV-2 S1+S2 (40589-V08B1, Sino Biological) (SARS-CoV-2, UniProt P0DTC2 16-1213); assay: as above
[12] = target: Spike of live SARS-CoV-2 WT virus (SARS-CoV-2, UniProt P0DTC2 14-1273); assay: cell-based or functional assay; remark: listed apart in the source
[13] = target: T5, SARS-CoV-2 S1 (40591-V08H3, Sino …); assay: ELISA, hmAb at 10 and 1 ug/ml in duplicate; AUC
[14] = target: T6, SARS-CoV-2 S2 (40590-V08B, Sino …); assay: ELISA, hmAb at 10 and 1 ug/ml in duplicate; AUC
[15] = target: T7, SARS-CoV-2 S1+S2 (40589-V08B1, Sino …); assay: ELISA, hmAb at 10 and 1 ug/ml in duplicate; AUC

B1: 1213H7 (antibody, V domains shown)
VH: QVQLQQSGPEVKKPGTSVKVSCRASGFTFSSSAMQWVRQARGQRLEWIGWIVVGSGNANYAQKFQERVTITRDLSTRTAYMELSSLRSEDTAVYYCAAPYCSGGTCLDGFDIWGQGTMVTVSS
VL: EIVLTQSPGTLSLSPGERATLSCRASQSVSRNYLGWYQQKPGQAPRLLIYGASSRATGIPDRFSGSGSGTDFTLTISRLEPEDFAVYYCQQYGSSPWTFGQGTKVEIK
B1 was tested, and the “ADCP activity, fold over isotype control” value [1] was roughly 8 fold, the binding result [2] was “no binding (tested: 5 ug/ml)” and the binding result [3] was “no binding (tested: 5 ug/ml)”. B1: no binding (tested: 5 ug/ml) [4].

B2: S2P6 (antibody, V domains shown)
VH: EVQLVQSGAEVKKPGASVKVSCKASGYTFTSQYMHWVRQAPGQGLEWIGIINPSGVHTSYAQKFQGRVTLTRDTSTSTLYMELSSLRSEDTAVYYCARGSPKGAFDYWGQGTLVTVSS
VL: not shown
With B2 the Kd [5] was 8.5 nM.

B3: CV3-25 (antibody, V domains shown)
VH: QVQLVESGAEVKKPGESLKISCKGSGYTFTRYWIGWVRQMPGKGLEWMGIIYPGDSDTRYSPSFQGHVTISADKSISTAYLQWNSLKASDTAMYYCARLPQYCSNGVCQRWFDPWGQGTLVTVSS
VL: EIVLTQSPSSVSASVGDRVTITCRASQGISSWLAWYQQKPGKAPKLLIYAASSLQSGVPSRFSGSGSGTDFTLTISSLQPEDFATYYCQQGNSFPYTFGQGTNLEIK
In the case of B3, the “Neutralization IC50 (µg/ml), Live Virus WT” value [6] is reported as 12.3 µg/mL.

B4: 1242C6 (antibody, V domains shown)
VH: EVQLVQSGAEVKKPGASVKVSCKASGFTFSDYYMHWVRQAPRQGLEWMGLINPSGSGTAYAQNFQGRVTLTRDTSTSTLYMEMGSLTSDDTAVYYCARMDSSGSYDHWGQGTLVTVSS
VL: DIVMTQSPGTLSLSPGDRATLSCRASQTIRISYLAWYQQKPGQAPRLLVYGPSIRATGIPDRFSASGSGTDFTLTISRLEPEDFAVYYCQHYGSSPPRYTFGQGTKLEIK
notes: Recombinant human IgG1
For B4, the binding result [7] was “binds”, the binding result [8] was “binds” and the “Binding AUC” value [9] was 0.8. For the same binder, the “Binding AUC” value [10] was 26.7, the “Binding AUC” value [11] was 25.6 and the “Neutralization IC50 (µg/ml), Live Virus WT” value [12] was 5.68 µg/mL. For the same binder, the “Binding AUC” value [13] was 0.8, the binding result [13] was “no binding (tested: 10 ug/ml)” and the “Binding AUC” value [14] was 26.7. The “Binding AUC” value [15] was 25.6.
